Paper PMC1097722

Biological target: Gal4-16.4.1 fusion protein (pBIND-16.4.1) (human)
Experiment: two-hybrid

other | Substance | fold induction of luciferase activity
41 fold | VP16-hCRM1 fusion protein (pACT-hCRM1) (from UniProt O14980 1-1071) (natural protein) | –
– | VP16-Rev fusion protein (pACT-Rev) (from UniProt P04618 1-116) (natural protein) | 11 fold
